We go through one molecule from article PMC2141644 (The Journal of Cell Biology, 1997).

The test concerns the target F-actin (actin filaments) from rabbit skeletal muscle (rabbit, UniProt P68135 1-377). Nature of the test: co-sedimentation.

B1: GST-dem (GST fused to abLIM amino acids 585-778) (domain or fragment)
chain: RSSGREEDDEELLRRRQLQEEQLMKLNSGLGQLILKEEMEKESRERSSLLASRYDSPINSASHIPSSKTASLPGYGRNGLHRPVSTDFAQYNSYGDVSGGVRDYQTLPDGHMPAMRMDRGVSMPNMLEPKIFPYEMLMVTNRGRNKILREVDRTRLERHLAPEVFREIFGMSIQEFDRLPLWRRNDMKKKAKLF
As a reminder, the Kd is the equilibrium constant for the complex coming apart. As to B1, the Kd is approximately 2600 nM and the “stoichiometry N” value was ~1.1 actin molecules per GST–abLIM monomer.
